This note sets out measurements from PMC3860265 (Journal of molecular biology, 2013).

Assay in all cases: kinase competition assay
The target of assay [1] is T1, SRPK1 (UniProt Q96SB4 1-655).
Assay [2] concerns the target T2, CLK1 (mouse, UniProt P22518 1-483).
The target of assay [3] is T1, SRPK1. This is another data set of the same source.
The target in assay [4] is T1, SRPK1. The source holds these as a separate data set.
The target of assay [5] is T2, CLK1. This is another data set of the same source.
Assay [6] has as its target T1, SRPK1. This is another data set of the same source.
Assay [7] concerns the target T2, CLK1. The source holds these as a separate data set.

Like-named read-outs stand apart in the source and are kept apart here.

T2 sequence (P22518 whole entry): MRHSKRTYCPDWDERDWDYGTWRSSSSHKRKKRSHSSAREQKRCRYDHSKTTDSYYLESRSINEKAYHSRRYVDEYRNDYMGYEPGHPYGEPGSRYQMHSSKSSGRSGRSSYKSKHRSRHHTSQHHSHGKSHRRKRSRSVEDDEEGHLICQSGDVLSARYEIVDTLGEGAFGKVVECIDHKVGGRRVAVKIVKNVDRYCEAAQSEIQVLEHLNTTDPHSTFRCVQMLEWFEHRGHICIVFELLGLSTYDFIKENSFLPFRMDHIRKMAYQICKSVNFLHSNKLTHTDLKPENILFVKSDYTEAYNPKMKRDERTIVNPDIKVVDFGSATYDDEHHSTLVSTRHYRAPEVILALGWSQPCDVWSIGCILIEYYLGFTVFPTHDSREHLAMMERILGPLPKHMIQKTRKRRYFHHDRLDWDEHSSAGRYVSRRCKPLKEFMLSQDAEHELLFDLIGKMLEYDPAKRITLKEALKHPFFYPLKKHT
T1 sequence (Q96SB4 whole entry): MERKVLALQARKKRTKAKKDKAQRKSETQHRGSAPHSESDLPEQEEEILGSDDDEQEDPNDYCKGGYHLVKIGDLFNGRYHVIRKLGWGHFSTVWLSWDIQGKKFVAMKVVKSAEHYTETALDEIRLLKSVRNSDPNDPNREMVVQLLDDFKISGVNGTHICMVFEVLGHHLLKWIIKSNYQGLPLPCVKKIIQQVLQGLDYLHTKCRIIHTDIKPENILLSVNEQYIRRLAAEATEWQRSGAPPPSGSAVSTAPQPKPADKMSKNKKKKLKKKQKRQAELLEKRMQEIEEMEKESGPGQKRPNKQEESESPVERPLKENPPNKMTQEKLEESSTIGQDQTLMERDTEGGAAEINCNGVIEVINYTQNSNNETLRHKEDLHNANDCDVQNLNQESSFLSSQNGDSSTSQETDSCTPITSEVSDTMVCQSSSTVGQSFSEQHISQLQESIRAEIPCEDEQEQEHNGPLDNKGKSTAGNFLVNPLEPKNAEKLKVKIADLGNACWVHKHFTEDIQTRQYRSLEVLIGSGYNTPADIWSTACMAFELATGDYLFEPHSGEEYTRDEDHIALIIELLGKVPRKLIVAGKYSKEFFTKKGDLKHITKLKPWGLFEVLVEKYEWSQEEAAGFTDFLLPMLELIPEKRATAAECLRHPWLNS

B1: SR(188–228) (domain or fragment, UniProt Q07955 188-228, looked up)
chain: AYIRVKVDGPRSPSYGRSRSRSRSRSRSRSRSNSRSRSYSP
As to B1, in the assay with SRPK1 [1], the Ki – broadly, the dissociation constant of the complex between target and ligand, obtained from inhibition or displacement – was 190 ± 30 nM; the appKI is 280 ± 50 nM. Moreover, in the assay with CLK1 [2], the Ki came out at 240 ± 30 nM and the appKI was found to be 370 ± 40 nM.

B2: SR(RRM2) (domain or fragment)
chain: NRVVVSGLPPSGSWQDLKDHMREAGDVCYADVYRDGTGVVEFVRKEDMTYAVRKLDNTKFRSHEGETAYIRVKVD
In the assay with SRPK1 [3], B2 showed an inhibitory constant (Ki) of 2900 ± 500 nM.

B3: SR(188–235) (domain or fragment, UniProt Q07955 188-235, looked up)
chain: AYIRVKVDGPRSPSYGRSRSRSRSRSRSRSRSNSRSRSYSPRRSRGSP
As to B3, in the assay with SRPK1 [1], the affinity, expressed as Ki, was 110 ± 7 nM and the appKI was determined as 170 ± 10 nM. Further, in the assay with CLK1 [2], the Ki is 120 ± 10 nM and the appKI worked out at 180 ± 20 nM.

B4: SR(ΔRRM2) (domain or fragment)
chain: MSGGGVIRGPAGNNDCRIYVGNLPPDIRTKDIEDVFYKYGAIRDIDLKNRRGGPPFAFVEFEDPRDAEDAVYGRDGYDYDGYRLRVEFPRSGRGTGRGGGGGGGGGAPRGRYGPPSRRSEGPRSPSYGRSRSRSRSRSRSRSRSNSRSRSYSPRRSRGSPRYSPRHSRSRSRT
B4: the figures for the Ki in the assay with SRPK1 [4] and in the assay with CLK1 [5] were 300 ± 100 nM and 130 ± 30 nM, respectively.

B5: SR(P200,228,235A) (natural protein, UniProt Q07955 1-248, looked up)
chain: MSGGGVIRGPAGNNDCRIYVGNLPPDIRTKDIEDVFYKYGAIRDIDLKNRRGGPPFAFVEFEDPRDAEDAVYGRDGYDYDGYRLRVEFPRSGRGTGRGGGGGGGGGAPRGRYGPPSRRSENRVVVSGLPPSGSWQDLKDHMREAGDVCYADVYRDGTGVVEFVRKEDMTYAVRKLDNTKFRSHEGETAYIRVKVDGPRSASYGRSRSRSRSRSRSRSRSNSRSRSYSARRSRGSARYSPRHSRSRSRT
For the molecule B5, the Ki with SRPK1 [6] was 33 ± 3 nM; in the assay with CLK1 [7] it was 130 ± 20 nM. Moreover, the appKI in the assay with SRPK1 [6] was 80 ± 8 nM; with CLK1 [7] it was 440 ± 70 nM.

B6: SR(RRM1-2) (domain or fragment)
chain: MSGGGVIRGPAGNNDCRIYVGNLPPDIRTKDIEDVFYKYGAIRDIDLKNRRGGPPFAFVEFEDPRDAEDAVYGRDGYDYDGYRLRVEFPRSGRGTGRGGGGGGGGGAPRGRYGPPSRRSENRVVVSGLPPSGSWQDLKDHMREAGDVCYADVYRDGTGVVEFVRKEDMTYAVRKLDNTKFRSHEGETAYIRVKVD
In the assay with SRPK1 [3], B6 showed a Ki of 170 ± 30 nM.

B7: SR(188–220) (domain or fragment, UniProt Q07955 188-220, looked up)
chain: AYIRVKVDGPRSPSYGRSRSRSRSRSRSRSRSN
Regarding B7, in the assay with SRPK1 [1], the affinity, expressed as Ki, was 350 ± 200 nM and the appKI is 520 ± 40 nM. For the same molecule, in the assay with CLK1 [2], the affinity, expressed as Ki, was 290 ± 20 nM and the appKI worked out at 440 ± 40 nM.
